Data set [1] deals with T1, Thermofilum pendens pyruvate kinase (TpPK) (Thermofilum pendens, UniProt A1RX09).
T1 construct: gene Tpen_0330; full-length with N-terminal His6 tag and TEV site (23 additional residues); homotetramer
As to the kind of experiment: dead-end inhibition kinetics, LDH/NADH-coupled assay, […]°C, pH […]. It is filed as biochemical.

The target of data set [2] is Thermofilum pendens pyruvate kinase (Thermofilum pendens). As to the kind of experiment: native gel or EMSA; BN-PAGE, overnight at 4°C, 150 μg of TpPK; RMPK as molecular weight marker; native band of approximately 200 kDa. (A gel shift assay detects complexes by their altered migration in electrophoresis.)
Substrate in data set [3]: Nc1ncnc2c1ncn2[C@@H]1O[C@H](COP(=O)(O)OP(=O)(O)O)[C@@H](O)[C@H]1O
As to the kind of experiment: initial velocity kinetics (Km), LDH/NADH-coupled assay. It is filed as biochemical, Thermofilum pendens. The following applies: Mg2+ active site; random-order binding with PEP.

Substrate in the data set “purified protein”: C=C(OP(=O)(O)O)C(=O)O
As to the kind of experiment: purified protein. The following applies: Mg2+ active site; random-order binding with ADP-Mg.

Where two headings read alike, the source gives them in different places.

Turning to `Nc1ncnc2c1ncn2[C@@H]1O[C@H](COP(=O)(O)O)[C@@H](O)[C@H]1O` [AMP], in data set [1] (read-out: K i (AMP)), the Ki came out at 35 ± 1.2 mM.
Take `O=C(O)C(=O)O` [oxalate]: the Ki in data set [1] (read-out: K i (oxalate)) was determined as 0.05 ± 0.002 mM.
Consider “Thermofilum pendens pyruvate kinase (enzyme)”, for which the stoichiometry N (as a rule, the number of molecules, sites or subunits per partner or assembly) in data set [2] is 4.

B1: Thermofilum pendens pyruvate kinase (TpPK) (Thermofilum pendens Hrk 5) (protein)
chain: MAKVKLVATLGPSSWSEETMKRMVAEGVNAFRLNFSHVDYARFEELAKQVRRLETPLRPLTLIADLQGPVIRLGEFAPFQVRPGDRVTFTLSSKTEEKYAVPVPNGVFFEIVREGDEVLVEGGRLAFRIVDAGPEKAVGEALLEGEVKPRKTVTVRGKDIPLPTITEKDLRDIEFSVKAGFDAIALSFVRSSSDVQRLRDILFDYGAEDVKIIAKIETKSAVEDLDSILQKSDAALVARGDLANFYGLEEIYSIQRYIISRARRFGKPSIVATQLLESMISNPLPTRSEVVDVITAVRMGADALLLAGETAAGKYPVESVYWLRRIVEEAEREPLEVEDVAPDKSDLYESIAKGVVSLAEVISGKIIAFSEKGNTARRISKFRPKAGLIVFTNDPATARYVNMIYGVRVVYDPSLSKADQNLFSKMLSKALEHNLVNLGDLVVFTSGRRRGSTDLVSVERVKSE
notes: full-length with N-terminal His6 tag and TEV site (23 additional residues); homotetramer
For B1, the Michaelis constant (Km) (in general, the substrate concentration at which the rate is half of its maximum) in data set [3] turned out to be 160 ± 10 µM; in the data set “purified protein”, 380 ± 30 µM.

The record behind these values is article PMC4374775, “New Insights on the Mechanism of the K^+-Independent Activity of Crenarchaeota Pyruvate Kinases” (PLoS ONE, 2015).
